Test [1] concerns the target T1, SARS-CoV-2 Spike receptor binding domain (RBD), wild type, His-tagged (SARS-CoV-2, UniProt P0DTC2).
Test [2] deals with T1, SARS-CoV-2 Spike receptor binding …. In words: cryo-EM structure. The note with it: both partners purified.
Test [3] shares this target. Put plainly: BLI. The note with it: both partners purified.
The target is the same in test [4]. Put plainly: crystal structure. The note with it: both partners purified.

B1: 56 (antibody, V domains shown)
VH: QVQLVQSGAEVKKPGASVKVSCKASGYTFTSYGISWVRQAPGQGLEWMGWISAYNGNTNYAQKLQGRVTMTRDTSTSTVYMELSSLRSEDTAVYYCARDIGPIDYWGQGTLVTVSS
VL: DIQMTQSPSSLSASVGDRVTITCRASQGISSYLAWYQQKPGKAPKLLIYDASNLQSGVPSRFSGSGSGTDFTLTISSLQPEDFATYYCQQANSFPSTFGQGTKVEIK
The Kd is a measure of binding affinity in units of concentration. The low end stands for a tighter complex, the high end for a looser complex. The molecule B1 registered a Kd in test [1] of 23 nM.

B2: 158 (antibody, V domains shown)
VH: QVQLVQSGAEVKKPGASVKVSCKASGYTFTGYYMHWVRQAPGQGLEWMGWINPLNGGTNFAPKFQGRVTMTRDTSTSTVYMELSSLRSEDTAVYYCARDPGGSYSNDAFDIWGQGTLVTVSS
VL: DIQMTQSPSSLSASVGDRVTITCRASQSISRYLNWYQQKPGKAPKLLIYDASNLESGVPSRFSGSGSGTDFTLTISSLQPEDFATYYCQQANSFPLTFGGGTKVDIK
Regarding B2, binding in test [1] was characterised by a dissociation constant (Kd) of 172 nM.

B3: 64 (antibody, V domains shown)
VH: EVQLLESGGGLVQPGGSLRLSCAASGFPFSQHGMHWVRQAPGKGLEWVSAIDRSGSYIYYADSVKGRFTISRDNSKNTLYLQMNSLRAEDTAVYYCARDTYGGKVTYFDYWGQGTLVTVSS
VL: DIQMTQSPSSLSASVGDRVTITCRASQGISSHLAWYQQKPGKAPKLLIYDASNLETGVPSRFSGSGSGTDFTLTISSLQPEDFATYYCQQTYSTPWTFGQGTKVEIK
The molecule B3 displayed a Kd in test [1] of 97 nM.

B4: 128 (antibody, V domains shown)
VH: QVQLVQSGAEVKKPGASVKVSCKASGYTFTHYYMHWVRQAPGQGLEWMGIINPSSSSASYSQKFQGRVTMTRDTSTSTVYMELSSLRSEDTAVYYCARDGRYGSGSYPFDYWGQGTLVTVSS
VL: DIQMTQSPSSLSASVGDRVTITCRASQNISRYLNWYQQKPGKAPKLLIYDASNLETGVPSRFSGSGSGTDFTLTISSLQPEDFATYYCQQANGFPPTFGQGTKLEIK
As for B4, binding in test [1] was characterised by a dissociation constant (Kd) of 57 nM.

B5: Fab 46 (Fab, V domains shown)
VH: EVQLLESGGGLVQPGRSLRLSCAASGFTFSSYAMSWVRQAPGKGLEWVSTIYSGGSTYYADSVKGRFTISRDNSKNTLYLQMNSLRAEDTAVYYCARGDSRDAFDIWGQGTMVTVSS
VL: DIQMTQSPSSLSASVGDRVTITCRASQSISSWLAWYQQKPGKAPKLLIYDASNLETGVPSRFSGSGSGTDFTLTISSLQPEDFATYYCQQSYSTPFTFGPGTKVDIK
Take B5: the binding result in test [2] is “binds”.

B6: mAb 82, full-length IgG (antibody, V domains shown)
VH: QVQLVQSGAEVKKPGASVKVSCKASGGSFSTSAFYWVRQAPGQGLEWMGWINPYTGGTNYAQKFQGRVTMTRDTSTSTVYMELSSLRSEDTAVYYCARSRALYGSGSYFDYWGQGTLVTVSS
VL: DIQMTQSPSSLSASVGDRVTITCRASQVISNYLAWYQQKPGKAPKLLIYDASNLETGVPSRFSGSGSGTDFTLTISSLQPEDFATYYCQQSFSPPPTFGQGTRLEIK
For B6, the binding result in test [3] is reported as “binds”.

B7: mAb 324, full-length IgG (antibody, V domains shown)
VH: QVQLVQSGAEVKKPGASVKVSCKASGGTFNNYGISWVRQAPGQGLEWMGWMNPNSGNTGYAQKFQGRVTMTRDTSTSTVYMELSSLRSEDTAVYYCARVGDYGDYIVSPFDLWGRGTLVTVSS
VL: DIQMTQSPSSLSASVGDRVTITCRASQSITTYLNWYQQKPGKAPKLLIYDASNLETGVPSRFSGSGSGTDFTLTISSLQPEDFATYYCQQSYSTPPTFGQGTKVEIK
For B7, the binding result in test [3] is recorded as “binds”.

B8: mAb 46, full-length IgG (antibody, V domains shown)
VH: EVQLLESGGGLVQPGRSLRLSCAASGFTFSSYAMSWVRQAPGKGLEWVSTIYSGGSTYYADSVKGRFTISRDNSKNTLYLQMNSLRAEDTAVYYCARGDSRDAFDIWGQGTMVTVSS
VL: DIQMTQSPSSLSASVGDRVTITCRASQSISSWLAWYQQKPGKAPKLLIYDASNLETGVPSRFSGSGSGTDFTLTISSLQPEDFATYYCQQSYSTPFTFGPGTKVDIK
notes: also called antibody 46
Regarding B8, the binding result in test [3] is “binds”.

B9: 349 (antibody, V domains shown)
VH: EVQLLESGGGLVQPGGSLRLSCAASGFTFSNYGMHWVRQAPGKGLEWVSGISSAGSITNYADSVKGRFTISRDNSKNTLYLQMNSLRAEDTAVYYCAGNHAGTTVTSEYFQHWGQGTLVTVSS
VL: DIQMTQSPSSLSASVGDRVTITCRASQSISSWLAWYQQKPGKAPKLLIYDTSNLETGVPSRFSGSGSGTDFTLTISSLQPEDFATYYCQQSYTTPWTFGQGTRLEIK
In test [1], B9 returned a Kd of 74 nM.

B10: 160 (antibody, V domains shown)
VH: QVQLVQSGAEVKKPGASVKVSCKASGYTFTGHDMHWVRQAPGQGLEWMGIINPSGGSTSYAQKFQGRVTMTRDTSTSTVYMELSSLRSEDTAVYYCARANSLRYYYGMDVWGQGTMVTVSS
VL: DIQMTQSPSSLSASVGDRVTITCRASQSVSSWLAWYQQKPGKAPKLLIYAASSLQSGVPSRFSGSGSGTDFTLTISSLQPEDFATYYCQQGYTTPYTFGQGTKLEIK
As to B10, the Kd in test [1] amounted to 7.7 nM.

B11: 108 (antibody, V domains shown)
VH: QVQLVQSGAEVKKPGASVKVSCKASGYIFSRYAIHWVRQAPGQGLEWMGWMNPISGNTDYAPNFQGRVTMTRDTSTSTVYMELSSLRSEDTAVYYCAKDGSQLAYLVEYFQHWGQGTLVTVSS
VL: DIQMTQSPSSLSASVGDRVTITCRASQVITNNLAWYQQKPGKAPKLLIYDASTLETGVPSRFSGSGSGTDFTLTISSLQPEDFATYYCQQSYTFPYTFGQGTKVEIK
In test [1], B11 returned a Kd of 72 nM.

B12: Fab 52 (Fab, V domains shown)
VH: QVQLVQSGAEVKKPGSSVKVSCKASGYTFTSYGISWVRQAPGQGLEWMGGIIPMFGTTNYAQKFQGRVTITADKSTSTAYMELSSLRSEDTAVYYCARDRGDTIDYWGQGTLVTVSS
VL: DIQMTQSPSSLSASVGDRVTITCRASQGISNNLNWYQQKPGKAPKLLIYAASSLESGVPSRFSGSGSGTDFTLTISSLQPEDFATYYCQQGNGFPLTFGPGTKVDIK
notes: also called 52 Fab
B12: the binding result in test [4] was “binds”.

B13: mAb 52, full-length IgG (antibody, V domains shown)
VH: QVQLVQSGAEVKKPGSSVKVSCKASGYTFTSYGISWVRQAPGQGLEWMGGIIPMFGTTNYAQKFQGRVTITADKSTSTAYMELSSLRSEDTAVYYCARDRGDTIDYWGQGTLVTVSS
VL: DIQMTQSPSSLSASVGDRVTITCRASQGISNNLNWYQQKPGKAPKLLIYAASSLESGVPSRFSGSGSGTDFTLTISSLQPEDFATYYCQQGNGFPLTFGPGTKVDIK
notes: also called antibody 52
For the molecule B13, the binding result in test [3] is given as “binds”.

B14: Fab 298 (Fab, V domains shown)
VH: QVQLVQSGAEVKKPGASVKVSCKASGGTFSTYGISWVRQAPGQGLEWMGWISPNSGGTDLAQKFQGRVTMTRDTSTSTVYMELSSLRSEDTAVYYCASDPRDDIAGGYWGQGTLVTVSS
VL: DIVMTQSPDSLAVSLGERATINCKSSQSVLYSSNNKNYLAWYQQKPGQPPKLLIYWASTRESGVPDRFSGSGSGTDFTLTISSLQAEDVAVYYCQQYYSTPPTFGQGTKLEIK
notes: also called 298 Fab
For the molecule B14, the binding result in test [4] is “binds”.

B15: mAb 298, full-length IgG (antibody, V domains shown)
VH: QVQLVQSGAEVKKPGASVKVSCKASGGTFSTYGISWVRQAPGQGLEWMGWISPNSGGTDLAQKFQGRVTMTRDTSTSTVYMELSSLRSEDTAVYYCASDPRDDIAGGYWGQGTLVTVSS
VL: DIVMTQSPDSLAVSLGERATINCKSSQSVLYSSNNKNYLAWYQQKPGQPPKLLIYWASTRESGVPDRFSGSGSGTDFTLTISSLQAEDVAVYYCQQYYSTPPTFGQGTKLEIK
notes: also called IgG 298; antibody 298
As for B15, in test [3], the binding result is “binds”.

B16: 254 (antibody, V domains shown)
VH: EVQLLESGGGLVQPGGSLRLSCAASGFTFSSSAMHWVRQAPGKGLEWVSAIGTGGDTYYADSVKGRFTISRDNSKNTLYLQMNSLRAEDTAVYYCAREGDGYNFYFDYWGQGTLVTVSS
VL: DIQMTQSPSSLSASVGDRVTITCRASQGISSYLAWYQQKPGKAPKLLIYDASSLQIGVPSRFSGSGSGTDFTLTISSLQPEDFATYYCLQSYSTPPWTFGQGTKVEIK
The molecule B16 registered a Kd in test [1] of 127 nM.

B17: mAb 80, full-length IgG (antibody, V domains shown)
VH: QVQLVQSGAEVKKPGSSVKVSCKASGGTFNRYAFSWVRQAPGQGLEWMGGIIPIFGTANYAQKFQGRVTITADESTSTAYMELSSLRSEDTAVYYCARSTRELPEVVDWYFDLWGRGTLVTVSS
VL: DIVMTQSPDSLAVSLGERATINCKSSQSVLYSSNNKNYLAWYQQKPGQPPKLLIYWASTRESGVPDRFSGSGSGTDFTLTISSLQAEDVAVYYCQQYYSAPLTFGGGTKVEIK
Regarding B17, the binding result in test [3] is recorded as “binds”.

B18: mAb 236, full-length IgG (antibody, V domains shown)
VH: QVQLVQSGAEVKKPGASVKVSCKASGGTFTSYGINWVRQAPGQGLEWMGWMNPNSGNTGYAQKFQGRVTMTRDTSTSTVYMELSSLRSEDTAVYYCASRGIQLLPRGMDVWGQGTTVTVSS
VL: not shown
As for B18, the binding result in test [3] was “binds”.

B19: 120 (antibody, V domains shown)
VH: QVQLVQSGAEVKKPGASVKVSCKASGYTFTSYDINWVRQAPGQGLEWMGMIDPSGGSTSYAQKFQGRVTMTRDTSTSTVYMELSSLRSEDTAVYYCAKDFGGGTRYDYWYFDLWGRGTLVTVSS
VL: EIVMTQSPATLSVSPGERATLSCRASQSVSSRYLAWYQQKPGQAPRLLIYGASTRATGIPARFSGSGSGTEFTLTISSLQSEDFAVYYCQQYYTTPRTFGQGTRLEIK
In test [1], B19 gave a Kd of 24 nM.

B20: 178 (antibody, V domains shown)
VH: QVQLVQSGAEVKKPGASVKVSCKASGYTFTDYHMHWVRQAPGQGLEWMGWINPNSGGTNYAQKFQGRVTMTRDTSTSTVYMELSSLRSEDTAVYYCARDISSWYEITKFDPWGQGTLVTVSS
VL: EIVMTQSPATLSVSPGERATLSCKASQSVSGTYLAWYQQKPGQAPRLLIYGASTRATGIPARFSGSGSGTEFTLTISSLQSEDFAVYYCLQTHSYPPTFGQGTKVEIK
B20 registered a Kd in test [1] of 72 nM.

Source of the values: publication PMC8209050 (Nature Communications, 2021).
